Assay results published in patent US20150329594A1 (University of California, published 2015).
Bridge positions count the residues as written; N and C are the ends. Square brackets hold non-standard residues; d marks the D form. Nal = 1-naphthylalanine or 2-naphthylalanine; Trp(1-Me) = Cn1cc(C[C@H](N)C(=O)O)c2ccccc21; Aal = not defined here; Sea = not defined here

B1: Peptide 4.8, Ac-RS-ICV{Nal}QDWG{Nal}HRCT-NH2 (peptide)
peptide: Ac-RSICV[Nal]QDWG[Nal]HRCT-NH2
modifications: disulfide 4-14; not fully specified; printed as Ac-RSICV{Nal}QDWG{Nal}HRCT-NH2
B2: Peptide 2.5, Ac-ICVWQDWG{Sea}HRCT-NH2 (peptide)
peptide: Ac-ICVWQDWG[Sea]HRCT-NH2
modifications: disulfide 2-12; reading uncertain; also: printed as Ac-ICVWQDWG{Sea}HRCT-NH2
B3: Peptide 4.4, Ac-RS-ICVWQDWG{Nal}HRCT-NH2 (peptide)
peptide: Ac-RSICVWQDWG[Nal]HRCT-NH2
modifications: disulfide 4-14; not fully specified; printed as Ac-RS-ICVWQDWG{Nal}HRCT-NH2
B4: Peptide 4.5, Ac-ER-ICV{Nal}QDWG{Nal}HRCT-NH2 (peptide)
peptide: Ac-ERICV[Nal]QDWG[Nal]HRCT-NH2
modifications: disulfide 4-14; not fully specified; printed as Ac-ERICV{Nal}QDWG{Nal}HRCT-NH2
B5: Peptide 4.1, Ac-ER-ICVWQDWG{Nal}HRCT-NH2 (peptide)
peptide: Ac-ERICVWQDWG[Nal]HRCT-NH2
modifications: disulfide 4-14; not fully specified; printed as Ac-ER-ICVWQDWG{Nal}HRCT-NH2
B6: Peptide 3.1, Ac-ER-ICVWQDWGAHRCT-NH2 (peptide)
peptide: Ac-ERICVWQDWGAHRCT-NH2
modifications: disulfide 4-14
SMILES: CC[C@H](C)[C@H](NC(=O)[C@H](CCCNC(=N)N)NC(=O)[C@H](CCC(=O)O)NC(C)=O)C(=O)N[C@H]1CSSC[C@@H](C(=O)N[C@H](C(N)=O)[C@@H](C)O)NC(=O)[C@H](CCCNC(=N)N)NC(=O)[C@H](Cc2c[nH]cn2)NC(=O)[C@H](C)NC(=O)CNC(=O)[C@H](Cc2c[nH]c3ccccc23)NC(=O)[C@H](CC(=O)O)NC(=O)[C@H](CCC(N)=O)NC(=O)[C@H](Cc2c[nH]c3ccccc23)NC(=O)[C@H](C(C)C)NC1=O
B7: Peptide 3.2, Ac-NN-LCVWQDWGAHRCT-NH2 (peptide)
peptide: Ac-NNLCVWQDWGAHRCT-NH2
modifications: disulfide 4-14
SMILES: CC(=O)N[C@@H](CC(N)=O)C(=O)N[C@@H](CC(N)=O)C(=O)N[C@@H](CC(C)C)C(=O)N[C@H]1CSSC[C@@H](C(=O)N[C@H](C(N)=O)[C@@H](C)O)NC(=O)[C@H](CCCNC(=N)N)NC(=O)[C@H](Cc2c[nH]cn2)NC(=O)[C@H](C)NC(=O)CNC(=O)[C@H](Cc2c[nH]c3ccccc23)NC(=O)[C@H](CC(=O)O)NC(=O)[C@H](CCC(N)=O)NC(=O)[C@H](Cc2c[nH]c3ccccc23)NC(=O)[C@H](C(C)C)NC1=O
B8: Peptide 4.3, Ac-NR-LCVWQDWG{Nal}HRCT-NH2 (peptide)
peptide: Ac-NRLCVWQDWG[Nal]HRCT-NH2
modifications: disulfide 4-14; not fully specified; printed as Ac-NR-LCVWQDWG{Nal}HRCT-NH2
B9: Peptide 4.6, Ac-NN-LCV{Nal}QDWG{Nal}HRCT-NH2 (peptide)
peptide: Ac-NNLCV[Nal]QDWG[Nal]HRCT-NH2
modifications: disulfide 4-14; not fully specified; printed as Ac-NNLCV{Nal}QDWG{Nal}HRCT-NH2
B10: Peptide 2.1, Ac-ICVmeWQDWG{Nal}HRCT-NH2 (peptide)
peptide: Ac-ICV[Trp(1-Me)]QDWG[Nal]HRCT-NH2
modifications: disulfide 2-12; not fully specified; printed as Ac-ICV{meW}QDWG{Nal}HRCT-NH2
B11: Peptide 4.7, Ac-NR-LCV{Nal}QDWG{Nal}HRCT-NH2 (peptide)
peptide: Ac-NRLCV[Nal]QDWG[Nal]HRCT-NH2
modifications: disulfide 4-14; not fully specified; printed as Ac-NRLCV{Nal}QDWG{Nal}HRCT-NH2
B12: Peptide 3.3, Ac-NR-LCVWQDWGAHRCT-NH2 (peptide)
peptide: Ac-NRLCVWQDWGAHRCT-NH2
modifications: disulfide 4-14
SMILES: CC(=O)N[C@@H](CC(N)=O)C(=O)N[C@@H](CCCNC(=N)N)C(=O)N[C@@H](CC(C)C)C(=O)N[C@H]1CSSC[C@@H](C(=O)N[C@H](C(N)=O)[C@@H](C)O)NC(=O)[C@H](CCCNC(=N)N)NC(=O)[C@H](Cc2c[nH]cn2)NC(=O)[C@H](C)NC(=O)CNC(=O)[C@H](Cc2c[nH]c3ccccc23)NC(=O)[C@H](CC(=O)O)NC(=O)[C@H](CCC(N)=O)NC(=O)[C@H](Cc2c[nH]c3ccccc23)NC(=O)[C@H](C(C)C)NC1=O
B13: Peptide 2.2, Ac-ICVWQDWG{Nal}HRCT-NH2 (peptide)
peptide: Ac-ICVWQDWG[Nal]HRCT-NH2
modifications: disulfide 2-12; not fully specified; printed as Ac-ICVWQDWG{Nal}HRCT-NH2
B14: Peptide 2.4, Ac-ICVWQDWG{Aal}HRCT-NH2 (peptide)
peptide: Ac-ICVWQDWG[Aal]HRCT-NH2
modifications: disulfide 2-12; reading uncertain; also: printed as Ac-ICVWQDWG{Aal}HRCT-NH2
B15: Peptide 4.2, Ac-NN-LCVWQDWG{Nal}HRCT-NH2 (peptide)
peptide: Ac-NNLCVWQDWG[Nal]HRCT-NH2
modifications: disulfide 4-14; not fully specified; printed as Ac-NN-LCVWQDWG{Nal}HRCT-NH2
B16: Peptide 3.4, Ac-RS-ICVWQDWGAHRCT-NH2 (peptide)
peptide: Ac-RSICVWQDWGAHRCT-NH2
modifications: disulfide 4-14
B17: Peptide V, Ac-WW-RCVWQDWGAHRCT-NH2 (peptide)
peptide: Ac-WWRCVWQDWGAHRCT-NH2
modifications: disulfide 4-14
SMILES: CC(=O)N[C@@H](Cc1c[nH]c2ccccc12)C(=O)N[C@@H](Cc1c[nH]c2ccccc12)C(=O)N[C@@H](CCCNC(=N)N)C(=O)N[C@H]1CSSC[C@@H](C(=O)N[C@H](C(N)=O)[C@@H](C)O)NC(=O)[C@H](CCCNC(=N)N)NC(=O)[C@H](Cc2c[nH]cn2)NC(=O)[C@H](C)NC(=O)CNC(=O)[C@H](Cc2c[nH]c3ccccc23)NC(=O)[C@H](CC(=O)O)NC(=O)[C@H](CCC(N)=O)NC(=O)[C@H](Cc2c[nH]c3ccccc23)NC(=O)[C@H](C(C)C)NC1=O
B18: Peptide VII, Ac-RS-RCVme…-NH2 (peptide)
peptide: Ac-RSRCV[Trp(1-Me)]QDWGAHRCT-NH2
modifications: disulfide 4-14
SMILES: CC(=O)N[C@@H](CCCNC(=N)N)C(=O)N[C@@H](CO)C(=O)N[C@@H](CCCNC(=N)N)C(=O)N[C@H]1CSSC[C@@H](C(=O)N[C@H](C(N)=O)[C@@H](C)O)NC(=O)[C@H](CCCNC(=N)N)NC(=O)[C@H](Cc2c[nH]cn2)NC(=O)[C@H](C)NC(=O)CNC(=O)[C@H](Cc2c[nH]c3ccccc23)NC(=O)[C@H](CC(=O)O)NC(=O)[C@H](CCC(N)=O)NC(=O)[C@H](Cc2cn(C)c3ccccc23)NC(=O)[C@H](C(C)C)NC1=O
B19: Peptide IV, Ac-SS-ICVWQDWGAHRCT-NH2 (peptide)
peptide: Ac-SSICVWQDWGAHRCT-NH2
modifications: disulfide 4-14
SMILES: CC[C@H](C)[C@H](NC(=O)[C@H](CO)NC(=O)[C@H](CO)NC(C)=O)C(=O)N[C@H]1CSSC[C@@H](C(=O)N[C@H](C(N)=O)[C@@H](C)O)NC(=O)[C@H](CCCNC(=N)N)NC(=O)[C@H](Cc2c[nH]cn2)NC(=O)[C@H](C)NC(=O)CNC(=O)[C@H](Cc2c[nH]c3ccccc23)NC(=O)[C@H](CC(=O)O)NC(=O)[C@H](CCC(N)=O)NC(=O)[C@H](Cc2c[nH]c3ccccc23)NC(=O)[C@H](C(C)C)NC1=O
B20: Peptide II, Ac-me…-NH2 (peptide)
peptide: Ac-[Trp(1-Me)]CVWQDWGAHRCT-NH2
modifications: disulfide 2-12
B21: Peptide VIII, Ac-SS-RCVme…-NH2 (peptide)
peptide: Ac-SSRCV[Trp(1-Me)]QDWGAHRCT-NH2
modifications: disulfide 4-14
SMILES: CC(=O)N[C@@H](CO)C(=O)N[C@@H](CO)C(=O)N[C@@H](CCCNC(=N)N)C(=O)N[C@H]1CSSC[C@@H](C(=O)N[C@H](C(N)=O)[C@@H](C)O)NC(=O)[C@H](CCCNC(=N)N)NC(=O)[C@H](Cc2c[nH]cn2)NC(=O)[C@H](C)NC(=O)CNC(=O)[C@H](Cc2c[nH]c3ccccc23)NC(=O)[C@H](CC(=O)O)NC(=O)[C@H](CCC(N)=O)NC(=O)[C@H](Cc2cn(C)c3ccccc23)NC(=O)[C@H](C(C)C)NC1=O

The binders below were run against T1, human complement protein C3 (human, UniProt P01024 23-1663) (assay: cell-based or functional assay).
T1 sequence (P01024 23-1663 limits assumed): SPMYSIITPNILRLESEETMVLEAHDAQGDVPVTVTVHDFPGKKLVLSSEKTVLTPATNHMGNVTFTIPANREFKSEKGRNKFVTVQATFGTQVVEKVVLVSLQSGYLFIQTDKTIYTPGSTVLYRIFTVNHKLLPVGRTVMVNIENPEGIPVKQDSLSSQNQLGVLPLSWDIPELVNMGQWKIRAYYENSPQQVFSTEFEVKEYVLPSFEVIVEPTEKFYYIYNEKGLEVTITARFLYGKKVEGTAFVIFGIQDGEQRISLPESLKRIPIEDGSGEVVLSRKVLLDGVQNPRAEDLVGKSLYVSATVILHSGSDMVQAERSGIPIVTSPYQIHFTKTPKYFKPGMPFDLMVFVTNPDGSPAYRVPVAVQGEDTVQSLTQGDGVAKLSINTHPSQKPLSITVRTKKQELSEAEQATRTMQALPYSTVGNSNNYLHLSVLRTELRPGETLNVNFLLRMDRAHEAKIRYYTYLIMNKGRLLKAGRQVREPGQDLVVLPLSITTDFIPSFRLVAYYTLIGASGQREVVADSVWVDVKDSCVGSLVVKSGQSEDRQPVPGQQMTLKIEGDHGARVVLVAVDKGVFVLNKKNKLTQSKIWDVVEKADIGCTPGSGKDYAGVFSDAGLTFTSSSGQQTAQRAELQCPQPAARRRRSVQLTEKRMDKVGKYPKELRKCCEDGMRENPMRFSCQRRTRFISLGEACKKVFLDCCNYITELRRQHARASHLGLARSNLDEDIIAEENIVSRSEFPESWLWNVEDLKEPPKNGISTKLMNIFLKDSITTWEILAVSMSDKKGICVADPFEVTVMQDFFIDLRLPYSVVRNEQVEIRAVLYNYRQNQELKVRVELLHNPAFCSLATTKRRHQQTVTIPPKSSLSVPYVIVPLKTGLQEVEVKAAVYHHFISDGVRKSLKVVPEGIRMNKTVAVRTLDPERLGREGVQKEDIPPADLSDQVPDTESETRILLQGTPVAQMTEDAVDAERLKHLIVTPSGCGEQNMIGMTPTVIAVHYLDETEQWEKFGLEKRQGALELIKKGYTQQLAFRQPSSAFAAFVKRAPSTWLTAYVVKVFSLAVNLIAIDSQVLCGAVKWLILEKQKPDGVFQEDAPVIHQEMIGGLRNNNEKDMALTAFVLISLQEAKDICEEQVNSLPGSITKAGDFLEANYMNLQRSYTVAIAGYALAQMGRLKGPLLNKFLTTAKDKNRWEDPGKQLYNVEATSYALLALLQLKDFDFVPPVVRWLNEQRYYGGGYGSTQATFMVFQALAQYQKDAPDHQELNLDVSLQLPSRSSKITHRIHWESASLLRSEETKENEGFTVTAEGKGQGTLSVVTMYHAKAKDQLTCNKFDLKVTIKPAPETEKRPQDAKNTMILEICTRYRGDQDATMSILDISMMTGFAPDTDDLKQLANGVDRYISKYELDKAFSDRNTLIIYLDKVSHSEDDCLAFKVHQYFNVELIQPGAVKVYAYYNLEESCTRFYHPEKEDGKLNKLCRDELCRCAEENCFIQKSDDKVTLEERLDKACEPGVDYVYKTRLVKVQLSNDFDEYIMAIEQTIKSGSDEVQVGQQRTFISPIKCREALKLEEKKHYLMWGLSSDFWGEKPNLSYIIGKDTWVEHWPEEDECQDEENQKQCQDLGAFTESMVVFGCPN

Binder	C3b ELISA IC50	C5b-9 ELISA IC50	Lysis IC50
B1	4100 nM	2400 nM	2800 nM
B2	600 nM	700 nM	500 nM
B3	3100 nM	2000 nM	1800 nM
B4	3800 nM	2400 nM	3000 nM
B5	3000 nM	1800 nM	2300 nM
B6	900 nM	500 nM	900 nM
B7	600 nM	500 nM	300 nM
B8	2000 nM	1200 nM	1200 nM
B9	3900 nM	2300 nM	2200 nM
B10	1400 nM	900 nM	900 nM
B11	2300 nM	1400 nM	1300 nM
B12	600 nM	500 nM	300 nM
B13	2400 nM	2000 nM	1400 nM
B14	900 nM	800 nM	700 nM
B15	2900 nM	1900 nM	2100 nM
B16	700 nM	600 nM	300 nM

Target: T1, human complement protein C3
Test: cell-based or functional assay
Remark: another data set of the same source

Binder	IC50 (assay not named in Table 7; preliminary C3b ELISA by paragraph 235)
B17	460000 nM
B18	470000 nM
B19	330000 nM
B20	240000 nM
B21	420000 nM
